Measured values taken from patent US5877293, “CDR grafted anti-CEA antibodies and their production” (Celltech Therapeutics Limited, dated 1999).
Blank lines part the entries; values can stand above or below the binder they belong to.

Tests used:
[1] = molecular target: T1, Carcinoembryonic Antigen (CEA) (Homo sapiens (Human), UniProt P06731); experiment: competition RIA against 125I-labelled murine or chimeric A5B7 IgG1 on CEA coated beads
Method: (§1) The competition RIA for anti-CEA activity involved competition of a series of ^125I-labelled murine or chimeric A5B7 IgG1 with humanised IgG or fragments thereof from culture supernatant samples for binding to CEA coated beads. Binding activity was determined by measuring bead associated radioactivity. The assay was calibrated by competition with standard preparations of chimeric or murine A5B7 IgG1 and plotting % bound cpm versus antibody concentration. Interpolated apparent A5B7 concentration of unknowns was normalised by dividing by the assembly assay result to give a specific activity. Finally specific activity was expressed as % relative potency by comparison to that obtained from a positive control chimeric A5B7 culture supernatant produced during the same experiment.
The relative potency of purified murine and chimeric A5B7 Fab' and F(ab')_2 fragments and murine IgG was investigated using the competition RIA. In addition, the direct binding ELISA was run in competition mode, by coincubation of the test specimen with murine A5B7 IgG1, for confirmation of relative potency.
The relative potencies of murine and chimeric IgGs and fragments were measured by the competition RIA.

[2] = molecular target: T1, Carcinoembryonic Antigen (CEA); experiment: direct CEA binding ELISA, crude transient CHO supernatant (pAL46 + pBG11)
[3] = molecular target: T1, Carcinoembryonic Antigen (CEA); experiment: competition RIA on CEA coated beads, crude CHO supernatant
Method: as §1
In order to assess the CEA binding activity of the grafted chains co-expression, experiments in a transient CHO cell system were first performed with chimeric partners. Thus pAL43 and pAL44 were co-transfected into the CHO L761 h cell line (27) together with the chimeric A5B7 heavy chain expression plasmid pBG7, while pAL45 and pAL46 were co-transfected with the light chain expression plasmid pBG11. Co-transfections of pBG7 and pHMC19 were also performed to provide a chimeric/chimeric standard against which to compare activity of the chimeric/grafted hybrids. […] Competition RIAs were also performed on the crude CHO cell supernatants for gL1/gH2 and gL2/gH2.

[4] = molecular target: T1, Carcinoembryonic Antigen (CEA); experiment: direct CEA binding ELISA, crude transient CHO supernatant
[5] = molecular target: T1, Carcinoembryonic Antigen (CEA); experiment: direct CEA binding ELISA, crude transient CHO supernatant (pAL45 + pBG11)
[6] = molecular target: T1, Carcinoembryonic Antigen (CEA); experiment: direct CEA binding ELISA, crude transient CHO supernatant (pAL44 + pBG7)
[7] = molecular target: T1, Carcinoembryonic Antigen (CEA); experiment: direct CEA binding ELISA, crude transient CHO supernatant (pAL43 + pBG7)

- % Relative Potency [1]: 97%
B1: murine A5B7 F(ab')2 (other)
VH: EVKLVESGGGLVQPGGSLRLSCATSGFTFTDYYMNWVRQPPGKALEWLGFIGNKANGYTTEYSASVKGRFTISRDKSQSILYLQMNTLRAEDSATYYCTRDRGLRFYFDYWGQGTTLTVSS
VL: QTVLSQSPAILSASPGEKVTMTCRASSSVTYIHWYQQKPGSSPKSWIYATSNLASGVPARFSGSGSGTSYSLTISRVEAEDAATYYCQHWSSKPPTFGGGTKLEIKR

- binding result [2]: binds
B2: chimeric A5B7 light chain / grafted heavy chain gH2 hybrid (antibody, V domains shown)
VH: EVQLLESGGGLVQPGGSLRLSCATSGFTFTDYYMNWVRQAPGKGLEWLGFIGNKANGYTTEYSASVKGRFTISRDKSKSTLYLQMNTLQAEDSAIYYCTRDRGLRFYFDYWGQGTLVTVSS
VL: QTVLSQSPAILSASPGEKVTMTCRASSSVTYIHWYQQKPGSSPKSWIYATSNLASGVPARFSGSGSGTSYSLTISRVEAEDAATYYCQHWSSKPPTFGGGTKLEIKR

- Specific activity [3]: 0.55
- relative potency [3]: 47%
- binding relative to the double chimeric antibody [4]: ~60%
B3: Grafted A5B7 gL2/gH2 (antibody, V domains shown)
VH: EVQLLESGGGLVQPGGSLRLSCATSGFTFTDYYMNWVRQAPGKGLEWLGFIGNKANGYTTEYSASVKGRFTISRDKSKSTLYLQMNTLQAEDSAIYYCTRDRGLRFYFDYWGQGTLVTVSS
VL: QTVLTQSPSSLSVSVGDRVTMTCRASSSVTYIHWYQQKPGLAPKSWIYATSNLASGVPSRFSGSGSGTDYTLTISSLQPEDIATYYCQHWSSKPPTFGQGTKVEVKR

- binding result [5]: binds
B4: chimeric A5B7 light chain / grafted heavy chain gH1 hybrid (antibody, V domains shown)
VH: EVQLLESGGGLVQPGGSLRLSCATSGFTFTDYYMNWVRQAPGKGLEWLGFIGNKANGYTTEYSASVKGRFTISRDKSKSTLYLQMNGLQAEVSAIYYCTRDRGLRFYFDYWGQGTLVTVSS
VL: QTVLSQSPAILSASPGEKVTMTCRASSSVTYIHWYQQKPGSSPKSWIYATSNLASGVPARFSGSGSGTSYSLTISRVEAEDAATYYCQHWSSKPPTFGGGTKLEIKR

- binding result [6]: binds
B5: grafted light chain gL2 / chimeric A5B7 heavy chain hybrid (antibody, V domains shown)
VH: EVKLVESGGGLVQPGGSLRLSCATSGFTFTDYYMNWVRQPPGKALEWLGFIGNKANGYTTEYSASVKGRFTISRDKSQSILYLQMNTLRAEDSATYYCTRDRGLRFYFDYWGQGTTLTVSS
VL: QTVLTQSPSSLSVSVGDRVTMTCRASSSVTYIHWYQQKPGLAPKSWIYATSNLASGVPSRFSGSGSGTDYTLTISSLQPEDIATYYCQHWSSKPPTFGQGTKVEVKR

- % Relative Potency [1]: 8%
B6: murine A5B7 Fab' (Fab, V domains shown)
VH: EVKLVESGGGLVQPGGSLRLSCATSGFTFTDYYMNWVRQPPGKALEWLGFIGNKANGYTTEYSASVKGRFTISRDKSQSILYLQMNTLRAEDSATYYCTRDRGLRFYFDYWGQGTTLTVSS
VL: QTVLSQSPAILSASPGEKVTMTCRASSSVTYIHWYQQKPGSSPKSWIYATSNLASGVPARFSGSGSGTSYSLTISRVEAEDAATYYCQHWSSKPPTFGGGTKLEIKR
modifications: rendered monovalent by alkylation

- Specific activity [3]: 0.49
- relative potency [3]: 42%
- binding relative to the double chimeric antibody [4]: ~60%
B7: Grafted A5B7 gL1/gH2 (antibody, V domains shown)
VH: EVQLLESGGGLVQPGGSLRLSCATSGFTFTDYYMNWVRQAPGKGLEWLGFIGNKANGYTTEYSASVKGRFTISRDKSKSTLYLQMNTLQAEDSAIYYCTRDRGLRFYFDYWGQGTLVTVSS
VL: QTVLTQSPSSLSVSVGDRVTITCRASSSVTYIHWYQQKPGLAPKSLIYATSNLASGVPSRFSGSGSGTDYTFTISSLQPEDIATYYCQHWSSKPPTFGQGTKVEVKR

- % Relative Potency [1]: 20%
B8: chimeric A5B7 IgG4 Fab' delta cys (Fab, V domains shown)
VH: EVKLVESGGGLVQPGGSLRLSCATSGFTFTDYYMNWVRQPPGKALEWLGFIGNKANGYTTEYSASVKGRFTISRDKSQSILYLQMNTLRAEDSATYYCTRDRGLRFYFDYWGQGTTLTVSS
VL: QTVLSQSPAILSASPGEKVTMTCRASSSVTYIHWYQQKPGSSPKSWIYATSNLASGVPARFSGSGSGTSYSLTISRVEAEDAATYYCQHWSSKPPTFGGGTKLEIKR

- % Relative Potency [1]: 100%
- Specific activity [3]: 1.17
- relative potency [3]: 100%
B9: chimeric A5B7 IgG1 (antibody, V domains shown)
VH: EVKLVESGGGLVQPGGSLRLSCATSGFTFTDYYMNWVRQPPGKALEWLGFIGNKANGYTTEYSASVKGRFTISRDKSQSILYLQMNTLRAEDSATYYCTRDRGLRFYFDYWGQGTTLTVSS
VL: QTVLSQSPAILSASPGEKVTMTCRASSSVTYIHWYQQKPGSSPKSWIYATSNLASGVPARFSGSGSGTSYSLTISRVEAEDAATYYCQHWSSKPPTFGGGTKLEIKR

- binding result [7]: binds
B10: grafted light chain gL1 / chimeric A5B7 heavy chain hybrid (antibody, V domains shown)
VH: EVKLVESGGGLVQPGGSLRLSCATSGFTFTDYYMNWVRQPPGKALEWLGFIGNKANGYTTEYSASVKGRFTISRDKSQSILYLQMNTLRAEDSATYYCTRDRGLRFYFDYWGQGTTLTVSS
VL: QTVLTQSPSSLSVSVGDRVTITCRASSSVTYIHWYQQKPGLAPKSLIYATSNLASGVPSRFSGSGSGTDYTFTISSLQPEDIATYYCQHWSSKPPTFGQGTKVEVKR

- % Relative Potency [1]: 93%
B11: mouse monoclonal antibody A5B7 (murine A5B7 IgG1) (antibody, V domains shown)
VH: EVKLVESGGGLVQPGGSLRLSCATSGFTFTDYYMNWVRQPPGKALEWLGFIGNKANGYTTEYSASVKGRFTISRDKSQSILYLQMNTLRAEDSATYYCTRDRGLRFYFDYWGQGTTLTVSS
VL: QTVLSQSPAILSASPGEKVTMTCRASSSVTYIHWYQQKPGSSPKSWIYATSNLASGVPARFSGSGSGTSYSLTISRVEAEDAATYYCQHWSSKPPTFGGGTKLEIKR
